Test results: US20210253718A1, “FRIZZLED5 PROTEIN-BINDING AGENTS” (Modmab Therapeutics Corporation, priority 2016, published 2021)

What was measured:
Assay in all cases: Immunofluorescence of anti-FZD5 Fab binding to CHO cells overexpressing Frizzled CRD
Parameters in all cases: key: −: no binding; +: very weak binder; ++: weak binder; +++: good binder; ++++: very good binder
FZD4 CRD = target: T1, FZD4 CRD (Homo sapiens, UniProt Q9ULV1)
T1 construct: E42-V167; GPI anchor signal (C); expressed in transfected cells; host or cells: CHO cells, lentiviral pLenti-puro
T1 sequence (Q9ULV1 42-167): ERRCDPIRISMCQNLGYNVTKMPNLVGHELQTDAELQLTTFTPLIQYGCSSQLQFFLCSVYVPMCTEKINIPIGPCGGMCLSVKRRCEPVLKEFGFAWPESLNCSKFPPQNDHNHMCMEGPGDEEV
Method: (§1) Plasmids: pLCKO lentiviral vector used for knockout (TKO) library construction and expression of individual gRNAs was constructed as described previously (Hart et al., 2015). Briefly, single guide RNA (sgRNA) scaffold was amplified from px330 (Addgene 42230) and cloned into pLKO.TRC005 lentiviral vector (Broad Institute, Cambridge, Mass.) using AgeI/EcoRI restriction sites. BfuAI sites were added at the 5′ end of the sgRNA scaffold for cloning the TKO library or individual gRNA target sequences. Lenti Cas9-2A-BsdR vector used to generate Cas9 stable expression cell lines was constructed as described previously (Hart et al., 2015). Briefly, lentiCRISPR pXPR_001 (Addgene 49535) was modified through removal of the sgRNA scaffold region through NdeI/EcoRI digest and blunt ends generation using Large Klenow Fragment (NEB). 2A-puro was replaced with 2A-BsdR by PCR using the NheI/MluI sites. Each of the 10 human Frizzled cysteine rich domains (CRDs) were cloned into the lentiviral expression plasmid pLenti-puro in the following cassette: FZD_CRD-MYC-GPI.
(§2) To confirm that the FZD5-WNT7B circuit is not driven simply by expression and rule out the possibility of a disconnect between RNA and protein levels for the Wnt receptors in HPAF-II cells, a panel of recombinant Fabs were generated, alternatively referred to herein as ‘Frizzled profiler’, that can detect and discriminate all but one of the ten Frizzled receptors. […] To characterize the binding specificity of these Fabs on cells, a panel of 10 CHO cell lines was generated, each expressing the CRD domain of a different myc-tagged Frizzled family member anchored at the plasma membrane through a GPI anchor (CHO-myc-FZDGPI). Despite the high sequence identity between Frizzled family members (FIG. 7A, FIG. 7B), selective Fabs were identified for FZD4, FZD5, FZD6 and FZD10 as assessed by immunofluorescence and flow cytometry (FIG. 7D and FIG. 8). […] The FZD8 CRD is most homologous to that of FZD5 (FIG. 7B). These Fabs can be used to discriminate expression of FZD1, FZD2, FZD4, FZD5, FZD6, FZD7, FZD8, FZD9 and FZD10 (FIG. 7D and FIG. 8). The ‘Frizzled profiler’ therefore consists of 10 different Fabs that can be used to discriminate expression of 9 different Frizzled family members. The Frizzled profiler was then used to confirm that HPAF-II cells express FZD1, FZD5, FZD6 and possibly FZD8 (FIG. 7E).
(§3) The binding of anti-FZD5 Fabs to cell surface-expressed Frizzled protein was further determined for each member of the Frizzled family via flow cytometry and immunofluorescence analysis of a panel of 10 CHO cell lines, each ectopically over-expressing the extracellular cysteine-rich domain (CRD) of a different Frizzled protein family member.

FZD7 CRD = target: T2, FZD7 CRD (Homo sapiens, UniProt O75084)
T2 construct: D45-S169; GPI anchor signal (C); expressed in transfected cells; host or cells: CHO cells, lentiviral pLenti-puro
Method: as §1, §2, §3

FZD1 CRD = target: T3, FZD1 CRD (Homo sapiens, UniProt Q9UP38)
T3 construct: D112-P238; GPI anchor signal (C); expressed in transfected cells; host or cells: CHO cells, lentiviral pLenti-puro
Method: as §1, §2, §3

FZD6 CRD = target: T4, FZD6 CRD (Homo sapiens, UniProt O60353)
T4 construct: S20-P146; GPI anchor signal (C); expressed in transfected cells; host or cells: CHO cells, lentiviral pLenti-puro
T4 sequence (O60353 20-146): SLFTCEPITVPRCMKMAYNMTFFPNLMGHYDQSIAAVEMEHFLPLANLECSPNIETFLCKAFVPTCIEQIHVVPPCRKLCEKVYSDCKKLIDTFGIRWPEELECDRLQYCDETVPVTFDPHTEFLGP
Method: as §1, §2, §3

FZD5 CRD = target: T5, FZD5 CRD (Homo sapiens, UniProt Q13467)
T5 construct: K29-T156; GPI anchor signal (C); expressed in transfected cells; host or cells: CHO cells, lentiviral pLenti-puro
T5 sequence (Q13467 29-156): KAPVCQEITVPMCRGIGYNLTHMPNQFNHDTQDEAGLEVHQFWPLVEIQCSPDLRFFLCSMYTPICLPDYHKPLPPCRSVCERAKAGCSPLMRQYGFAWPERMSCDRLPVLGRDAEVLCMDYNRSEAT
Method: as §1, §2, §3

FZD8 CRD = target: T6, FZD8 CRD (Homo sapiens, UniProt Q9H461)
T6 construct: K31-D155; GPI anchor signal (C); expressed in transfected cells; host or cells: CHO cells, lentiviral pLenti-puro
T6 sequence (Q9H461 31-155): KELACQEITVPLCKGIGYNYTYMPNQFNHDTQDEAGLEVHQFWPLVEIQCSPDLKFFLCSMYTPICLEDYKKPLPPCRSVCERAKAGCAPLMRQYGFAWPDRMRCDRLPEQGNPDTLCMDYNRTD
Method: as §1, §2, §3

FZD2 CRD = target: T7, FZD2 CRD (Homo sapiens, UniProt Q14332)
T7 construct: D35-P161; GPI anchor signal (C); expressed in transfected cells; host or cells: CHO cells, lentiviral pLenti-puro
Method: as §1, §2, §3

Substance: Fab-2931: anti-FZD5 Fab with antibody variable region Fv-2931; CDR SEQ ID NOs: 35, 36, 70, 102, 146, 176 (CDR 1 QSVSSA; CDR 2 SAS; CDR 3 QQSSYSLIT; CDR 4 GFNLSYSS; CDR 5 ISPYSGST; CDR 6 ARGSYWYVGGGWWVSGHGGMDY)
- Immunofluorescence binding, Frizzled CRD overexpressed on CHO cells: FZD4 (FZD4 CRD): −
- Immunofluorescence binding, Frizzled CRD overexpressed on CHO cells: FZD7 (FZD7 CRD): +
- Immunofluorescence binding, Frizzled CRD overexpressed on CHO cells: FZD1 (FZD1 CRD): −
- Immunofluorescence binding, Frizzled CRD overexpressed on CHO cells: FZD6 (FZD6 CRD): −
- Immunofluorescence binding, Frizzled CRD overexpressed on CHO cells: FZD5 (FZD5 CRD): ++++
- Immunofluorescence binding, Frizzled CRD overexpressed on CHO cells: FZD8 (FZD8 CRD): −
- Immunofluorescence binding, Frizzled CRD overexpressed on CHO cells: FZD2 (FZD2 CRD): +
